Experimental data taken from paper PMC8434428.

Molecular target: Aca2 (anti-CRISPR associated protein 2) from Pectobacterium carotovorum bacteriophage ZF40 (Pectobacterium carotovorum bacteriophage ZF40)
Assay: SEC; final size exclusion run of untagged Aca2 on HiPrep 16/60 Sephacryl S-200 in buffer S [50 mM Tris-HCl (pH 7.9), 500 mM KCl, 10% glycerol]; oligomer judged from the elution volume

Aca2 (anti-CRISPR associated protein 2) from Pectobacterium carotovorum bacteriophage ZF40 (natural protein)
stoichiometry N: 2
